Paper PMC13053990
Each block holds one binder with its values, some of them ahead of it.

Tests used:
[1] = target: miPEP8 fused on its C-terminus to the N-terminal fragment of luciferase (N-Luc) (Drosophila melanogaster); experiment: split reporter (BiFC, NanoBiT); split firefly luciferase in S2 cells: miPEP8 or Ey fused to N-Luc, candidates or Antp fused to C-Luc; 48 h after transfection, D-luciferin, luminescence normalised; negative control: the two fragments not fused to any protein
[2] = target: EGFP-miPEP8 SLiMmt (mutated SLiM MOD_Plk1/MOD_Plk4) (Drosophila melanogaster); experiment: affinity purification with mass spectrometry; GFP-Trap agarose beads O/N at 4 °C on lysates of S2 cells transfected with EGFP, EGFP-miPEP8 or EGFP-miPEP8 SLiMmt; lysis buffer 50 mM Tris pH 7.5, 50 mM NaCl, 5% glycerol, 0.1% Igepal; four washes; LC-MS/MS, MaxQuant

- luminescence signal, times the negative control (times the negative control) [1]: 4.6
B1: PI3K92 E fused with the C-terminal fragment of the luciferase (natural protein)
chain: MNMMDNRALAYVAHQPKYETPPEEAEPPCMRFSVNLWKNEMLNWVDLICLLPNGFLLELRVNPANTIQVIKVEMVNQAKQMPLGYVIKEACEYQVYGISTFNIEPYTDETKRLSEVQPYFGILSLGERTDTTSFSSDYELTKMVNGMIGTTFDHNRTHGSPEIDDFRLYMTQTCDNIELERSAYTWQQRLLYEHPLRLANSTKMPELIRERHPTRTFLIVVKNENDQSTFTLSVNEQDTPFSLTESTLQKMNRSQMKMNDRTSDYILKVSGRDEYLLGDYPLIQFLYIQEMLSDSAVPNVVLQSVYRLESYINHHNEQAMVTKRPLPKKRTVHLHKSISSLWDMGNYFQLTLHSISNVNFDKTRALKVGVHVCLYHGDKKLCAQRSTDSPNGNFDTFLFNDLVMDFDIQMRNLPRMTRLCIVIFEVTKMSRSKKSSNNKDIALKDVPYNKNPLAWVNTTIFDHKDILRTGRHTLYTWTYADDIQSVEVFHPLGTIEPNPRKEECALVDLTFLSSGTGTVRYPSEEVVLQYAADREQVNRLQRQLAGPEKPIKELKELMANYTGLDKIYEMVDQDRNAIWERRNDILRELPEELSILLHCVYWKERDDVADMWYLLKQWPLISIERSLELLDYAYPDPAVRRFAIRCLHFLKDEDLLLYLLQLVQAIKHESYLESDLVVFLLERALRNQRIGHYFFWHLRSEMQTPSMQTRFGLLLEVYLKGCKHHVAPLRKQLHVLEKLKQGSLIAKKGSKEKVKTMLQDFLRDQRNSAVFQNIQNPLNPSFRCSGVTPDRCKVMDSKMRPLWVVFENADVNASDVHIIFKNGDDLRQDMLTLQMLRVMDQLWKRDGMDFRMNIYNCISMEKSLGMIEVVRHAETIANIQKEKGMFSATSPFKKGSLLSWLKEHNKPADKLNKAINEFTLSCAGYCVATYVLGVADRHSDNIMVKRNGQLFHIDFGHILGHFKEKLGVRRERVPFVLTHDFVYVINKGFNDRESKEFCHFQELCERAFLVLRKHGCLILSLFSMMISTGLPELSSEKDLDYLRETLVLDYTEEKAREHFRAKFSEALANSWKTSLNWASHNFSKNNKQ

- fold decrease of the interaction against EGFP-miPEP8 (MS intensity) [2]: 2.8 fold
B2: ref(2)P (refractory to sigma P), the orthologue of the human p62/Sequestosome 1 protein (natural protein)
chain: MPEKLLKITYQGAGPQKKINAYLRMPSQNYTILRREIELYLFQERQLPKCDVRTFWIDADKDEIEIVNQNDYEIFLAKCESNMHVQVAPLAPVEEPKATKQEGSSANAEAPSVDDPSNFTIHDAVECDGCGLAPLIGFRYKCVQCSNYDLCQKCELAHKHPEHLMLRMPTNNGPGMVDAWFTGPGLGRRSGRRSRGHCPFQETNQADPAGEPARDSRRERRQARRHAGVLTQFVEMMTNLPLNTTTATAPAEPQKPKAAEQTESPPQAEPTVTAEKAAESEAKPTEPKKVNTDQSVPRTEDPVTTPRSTQPTTPVINLDNISQIVPPEYMSAGIEILNNFSEMFSKIIDTTEGGDSGIFAPSTTPSAENKKPEEQGQSSGQSGASSANQSAVPSAAPSANQSNVPSANQSATPSISGSIPDAQLETEPLNPKPSETTTETEQERRRSDSLDPEWQLIDNAYSANNSNLINLDTTNPTAAPQEPVRDFGQLGELLRQHMNEEARVEQASANTQTAQVDTVSTSTSTTSVTTNSVGTSPAAPDDKRTVPVYHTDESINKSIHAMMAMGFSNEGAWLTQLLESVQGNISAALDVMNVSQNRN
